Data reported in patent US20220315554A1, “COMPOUNDS COMPRISING A […] LIGAND AND USE THEREOF” (priority 2019, published 2022).
Numbered stars: 1 amine (or outer) side, 2 acyl side, 3 side chain; on linkers, the order of the positions; unused ones are H or OH. Bridge positions count the residues as written; N and C are the ends. * marks the point of attachment. mXylylene = c1cc(C[*:1])cc(C[*:2])c1; Hexanoyl = CCCCCC(=O)*

T1: Recombinant human FAP (R&D systems, #3715-SE) (human)
T1 sequence: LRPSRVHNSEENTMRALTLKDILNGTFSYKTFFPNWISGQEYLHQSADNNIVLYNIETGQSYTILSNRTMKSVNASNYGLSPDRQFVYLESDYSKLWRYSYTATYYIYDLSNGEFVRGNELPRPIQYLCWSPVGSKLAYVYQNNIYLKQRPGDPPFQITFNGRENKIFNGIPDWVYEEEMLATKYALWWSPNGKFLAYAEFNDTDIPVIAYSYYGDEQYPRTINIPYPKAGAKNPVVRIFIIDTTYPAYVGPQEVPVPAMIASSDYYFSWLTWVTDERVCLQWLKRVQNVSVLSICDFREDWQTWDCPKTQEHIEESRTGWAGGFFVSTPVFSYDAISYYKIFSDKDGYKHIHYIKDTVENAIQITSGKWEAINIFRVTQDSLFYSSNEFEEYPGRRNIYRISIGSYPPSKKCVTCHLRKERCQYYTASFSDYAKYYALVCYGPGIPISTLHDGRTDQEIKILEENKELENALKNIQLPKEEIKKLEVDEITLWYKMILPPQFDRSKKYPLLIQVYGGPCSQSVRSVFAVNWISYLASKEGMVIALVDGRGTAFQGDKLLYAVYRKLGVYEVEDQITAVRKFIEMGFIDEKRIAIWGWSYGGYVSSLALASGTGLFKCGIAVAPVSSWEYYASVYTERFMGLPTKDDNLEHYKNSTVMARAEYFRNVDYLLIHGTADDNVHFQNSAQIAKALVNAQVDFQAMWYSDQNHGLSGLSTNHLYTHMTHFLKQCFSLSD


Legend:
[1] = biological target: Recombinant human DPP4 (R&D systems, #9168-SE) (human)
[2] = biological target: recombinant human PREP (R&D systems, #4308-SE) (human)
Chain of recombinant human PREP (R&D systems, #4308-SE) (human) (chain, as listed by the source limits assumed): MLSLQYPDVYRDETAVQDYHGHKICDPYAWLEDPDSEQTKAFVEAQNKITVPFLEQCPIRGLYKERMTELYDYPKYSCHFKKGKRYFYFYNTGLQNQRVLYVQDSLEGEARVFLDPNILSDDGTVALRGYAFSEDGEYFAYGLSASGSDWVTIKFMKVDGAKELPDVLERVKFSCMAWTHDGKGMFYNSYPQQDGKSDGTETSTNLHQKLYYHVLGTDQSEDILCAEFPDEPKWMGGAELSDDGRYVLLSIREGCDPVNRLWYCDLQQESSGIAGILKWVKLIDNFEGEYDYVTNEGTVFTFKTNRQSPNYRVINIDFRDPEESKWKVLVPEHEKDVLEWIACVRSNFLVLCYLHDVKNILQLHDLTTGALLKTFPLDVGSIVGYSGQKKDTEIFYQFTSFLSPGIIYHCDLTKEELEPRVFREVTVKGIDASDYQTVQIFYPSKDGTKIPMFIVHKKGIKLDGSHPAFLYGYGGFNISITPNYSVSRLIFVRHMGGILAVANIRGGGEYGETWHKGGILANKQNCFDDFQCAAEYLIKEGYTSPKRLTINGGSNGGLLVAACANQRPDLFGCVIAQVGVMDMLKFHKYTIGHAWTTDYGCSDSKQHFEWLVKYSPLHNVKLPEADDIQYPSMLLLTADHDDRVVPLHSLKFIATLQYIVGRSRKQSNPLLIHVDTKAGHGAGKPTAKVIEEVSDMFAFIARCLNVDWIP

[3] = biological target: T2, human fibroblast activation protein (FAP) on FAP-expressing human WI-38 fibroblasts (human); test: competition FACS, WI-38 cells, vs Cy5-labeled compound; D: pIC50 ≤6.0; details: remark: other sources report otherwise
[4] = biological target: T2, human fibroblast activation protein …; test: competition FACS, WI-38 cells, vs Cy5-labeled compound; A: pIC50 >8.0; details: remark: other sources report otherwise
[5] = biological target: T1, Recombinant human FAP (R&D systems, #3715-SE) (human)

Binder	pIC50 (DPP4) [1] [pIC50]	pIC50 (PREP) [2] [pIC50]	pIC50 Category (FACS) [3] [pIC50]	further results
Hexanoyl-CAPTEFC-NH2 (linker 1-7 via mXylylene; SMILES CCCCCC(=O)N[C@H]1CSCc2cccc(c2)CSC[C@@H](C(N)=O)NC(=O)[C@H](Cc2ccccc2)NC(=O)[C@H](CCC(=O)O)NC(=O)[C@H]([C@@H](C)O)NC(=O)[C@@H]2CCCN2C(=O)[C@H](C)NC1=O) [Hex-[Cys(3MeBn)-Ala-Pro-Thr-Glu-Phe-Cys]-NH2]			< 6	
Hexanoyl-CPPTQFC-NH2 (linker 1-7 via tMeBn(InDOTA-AET); also: In-DOTA complex) [Hex-[Cys(tMeBn(InDOTA-AET))-Pro-Pro-Thr-Gln-Phe-Cys]-NH2]				pIC50 Category (FACS) [4]: > 8 pIC50
Hexanoyl-CPPTEAC-NH2 (linker 1-7 via mXylylene; SMILES CCCCCC(=O)N[C@H]1CSCc2cccc(c2)CSC[C@@H](C(N)=O)NC(=O)[C@H](C)NC(=O)[C@H](CCC(=O)O)NC(=O)[C@H]([C@@H](C)O)NC(=O)[C@@H]2CCCN2C(=O)[C@@H]2CCCN2C1=O) [Hex-[Cys(3MeBn)-Pro-Pro-Thr-Glu-Ala-Cys]-NH2]			< 6	
Hexanoyl-CPPTEFCD-NH2 (linker 1-7 via mXylylene; not fully specified (residue 5); printed as Hex-[Cys(3MeBn)-Pro-Pro-Thr-Glu(NH-Apr-DOTA')-Phe-Cys]-Asp-NH2) [Hex-[Cys(3MeBn)-Pro-Pro-Thr-Glu(NH-Apr-DOTA')-Phe-Cys]-Asp-NH2]			< 6	pIC50 Category (Activity) [5]: < 6 pIC50
Hexanoyl-CPPTEFCD-NH2 (linker 1-7 via mXylylene; SMILES CCCCCC(=O)N[C@H]1CSCc2cccc(c2)CSC[C@@H](C(=O)N[C@@H](CC(=O)O)C(N)=O)NC(=O)[C@H](Cc2ccccc2)NC(=O)[C@H](CCC(=O)O)NC(=O)[C@H]([C@@H](C)O)NC(=O)[C@@H]2CCCN2C(=O)[C@@H]2CCCN2C1=O) [Hex-[Cys(3MeBn)-Pro-Pro-Thr-Glu-Phe-Cys]-Asp-NH2]				pIC50 Category (Activity) [5]: > 8 pIC50; pIC50 Category (FACS) [4]: > 8 pIC50

Continued, in another order:

pIC50 (DPP4) [1] [pIC50]	pIC50 (PREP) [2] [pIC50]	pIC50 Category (FACS) [3] [pIC50]	Binder	further results
< 6	< 6		CPPTEFC (N-terminal Hex; Cys1 and Cys7 linked as thioethers via 3MeBn; C-terminal NH2) [Hex-[Cys(3MeBn)-Pro-Pro-Thr-Glu-Phe-Cys]-NH2 (3BP-3287)]	
< 6	< 6		CPPTQFCD (N-terminal Hex; Cys1 and Cys7 linked as thioethers via 3MeBn; C-terminal NH2) [Hex-[Cys(3MeBn)-Pro-Pro-Thr-Gln-Phe-Cys]-Asp-NH2 (3BP-3476)]	
< 6	< 6		CPPTQFCD (N-terminal Hex; Cys1 and Cys7 linked as thioethers via tMeBn(DOTA-AET); C-terminal NH2) [Hex-[Cys(tMeBn(DOTA-AET))-Pro-Pro-Thr-Gln-Phe-Cys]-Asp-NH2 (3BP-3426)]	
